To fix the notation:
B4: mature Human IL-34 (ligand)
chain: NEPLEMWPLTQNEECTVTGFLRDKLQYRSRLQYMKHYFPINYKISVPYEGVFRIANVTRLQRAQVSERELRYLWVLVSLSATESVQDVLLEGHPSWKYLQEVETLLLNVQQGLTDVEVSPKVESVLSLLNAPGPNLKLVRPKALLDNCFRVMELLYCSCCKQSSVLNWQDCEVPSPQSCSPEPSLQYAATQLYPPPPWSPSSPPHSTGSVRPVRAQGEGLLP
notes: if the entry is the precursor, residues 21-242 apply; NCBI NP_689669.2 is printed; also called hIL-34; h IL-34

Experiment [1] has as its target T1, Cyno IL-34 (cyno (cynomolgus monkey), UniProt G7Q1L3 21-242).
T1 sequence: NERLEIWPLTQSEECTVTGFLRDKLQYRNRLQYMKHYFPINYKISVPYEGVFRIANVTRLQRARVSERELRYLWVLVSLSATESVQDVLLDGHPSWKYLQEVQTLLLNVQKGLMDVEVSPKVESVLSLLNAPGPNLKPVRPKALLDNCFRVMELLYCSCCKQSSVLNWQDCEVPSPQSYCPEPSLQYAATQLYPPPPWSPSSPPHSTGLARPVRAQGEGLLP
The experiment is described as follows: cell-based or functional assay.

For experiment [2], the target named is B4. The experiment is described as follows: cell-based or functional assay.
The target of experiment [3] is B4. The experiment is described as follows: cell-based or functional assay. This is another data set of the same source.
In experiment [4] the target is T1, Cyno IL-34. The experiment is described as follows: MSD solution equilibrium titration at 37 C; fixed antibody, cyno IL-34 titrated; mean ± STDEV, n = 5. On the procedure: (§1) Briefly, usually a 2-fold or 3-fold dilution series of human, cyno or mouse IL-34 is prepared from a starting concentration of 40, or 50 or 60 or 80 or 100 or 120 nM to 100 fM; and each series includes an IL-34 blank control. Samples are prepared in 3% (w/v) Blocker A solution (MSD®, #R93AA-1) and a fixed final concentration of 5-50 pM of each exemplified antibody in Table 1 is added to each sample. An antibody only control is included. A volume of 50 μl of each protein-antibody sample is added to individual wells of a 96-well microtiter plate (Greiner, EK-20101). The plate is sealed with optical adhesive film (Thermo Fisher Scientific, #4311971) and incubated at 37° C. for 1-3 days to allow for sample equilibrium. On the day before analysis, each row of a 96-well MSD® Standard plate (MSD®, #L15XA) is coated with 30 μl of the corresponding IL-34 (as used in the titration series) at a concentration of 1 μg/ml in phosphate buffered saline (PBS). […] The plate is washed three more times with PBST followed by the addition of 150 μl/well of 1× Read buffer (MSD®, #R92TC-2). The MSD® Standard plate is read using a MESO Quickplex SQ 120/1300 instrument (Meso Scale Discovery).

The target of experiment [5] is B4. The experiment is described as follows: MSD solution equilibrium titration at 37 C; fixed antibody, IL-34 titrated, free antibody captured on IL-34-coated plate; mean ± STDEV, n = 5. On the procedure:
as §1

Experiment [6] addresses IL-34 (species not stated). In words: cell-based or functional assay.
The target of experiment [7] is T2, Mouse IL-34 (mouse, UniProt Q8R1R4 21-235).
T2 construct: NCBI NP_001128572.1 is printed; also called Murine IL-34
T2 sequence: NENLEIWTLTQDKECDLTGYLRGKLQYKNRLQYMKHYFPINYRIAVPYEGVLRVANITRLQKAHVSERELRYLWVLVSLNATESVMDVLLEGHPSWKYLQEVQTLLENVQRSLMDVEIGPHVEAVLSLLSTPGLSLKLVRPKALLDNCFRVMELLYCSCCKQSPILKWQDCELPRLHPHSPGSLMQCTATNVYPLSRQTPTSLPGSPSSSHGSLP
The experiment is described as follows: MSD solution equilibrium titration at 37 C; fixed antibody, mouse IL-34 titrated. On the procedure: as §1

For experiment [8], the target named is T3, Human CSF1R Fc fusion protein (Exemplified compound D) (human, UniProt P07333 20-512, limits assumed).
T3 construct: Made in house and purified by MabSelect SuRe and size exclusion; also called hCSF1R-Fc; Exemplified compound D (hCSF1R-Fc); not shown: Fc part
T3 sequence (P07333 20-512 limits assumed): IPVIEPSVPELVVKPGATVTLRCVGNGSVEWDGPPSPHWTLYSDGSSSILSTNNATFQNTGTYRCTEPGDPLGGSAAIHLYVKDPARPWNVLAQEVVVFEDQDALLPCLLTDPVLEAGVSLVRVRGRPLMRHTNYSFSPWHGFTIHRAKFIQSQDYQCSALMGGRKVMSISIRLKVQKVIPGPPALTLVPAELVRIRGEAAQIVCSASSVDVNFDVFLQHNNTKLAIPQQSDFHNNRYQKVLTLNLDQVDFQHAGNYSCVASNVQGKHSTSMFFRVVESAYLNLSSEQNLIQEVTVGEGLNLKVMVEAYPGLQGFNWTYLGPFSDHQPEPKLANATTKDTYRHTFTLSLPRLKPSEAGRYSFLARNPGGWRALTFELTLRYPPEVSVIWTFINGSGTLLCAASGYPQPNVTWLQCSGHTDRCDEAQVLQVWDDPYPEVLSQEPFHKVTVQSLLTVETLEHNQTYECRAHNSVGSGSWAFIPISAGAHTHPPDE
In words: MSD solution equilibrium titration at 37 C; fixed Fc fusion, IL-34 titrated, free protein captured on IL-34-coated plate; mean ± STDEV, n = 5.

B1: Antibody 1 (antibody, human IgG4 S228P, kappa, F234A L235A, V domains shown)
VH: EVQLLESGGGLVQPGGSLRLSCAASGFTFSSYATSWVRQAPGKGLEWVSAISHSGRSTYYADSVKGRFTISRDNSKNTLYLQMNSLRAEDTAVYYCARGRSSLDTWGQGTLVTVSS
VL: EIVLTQSPGTLSLSPGERATLSCRASQSISSAYLAWYQQKPGQAPRLLIYASSIRPTGIPDRFSGSGSGTDFTLTISPLEPEDFAVYYCSQYGDSLSFGGGTKVEIKR
notes: Human anti-human IL-34 antibody with a modified IgG4 (IgG4PAA) heavy chain and kappa light chain; also called Exemplified Antibody 1
Usually Kd stands for a measure of binding affinity in units of concentration. As to B1, in experiment [1], the “IC50; neutralization of cyno IL-34 induced luciferase reporter activity, hCSF1R 293 SRE cells” value was 0.654 nM. Besides, the “IC50; neutralization of human IL-34 induced luciferase reporter activity, hCSF1R 293 SRE cells” value in experiment [2] worked out at 0.385 nM. Further, in experiment [3], the “IC50; inhibition of human IL-34 induced CSF1R dimerization, PathHunter eXpress assay” value was 0.226 nM. Moreover, the Kd in experiment [4] was 0.108 nM; in experiment [5], 0.059 nM.

B2: Antibody 3 (antibody, mouse IgG1, kappa, V domains shown)
VH: EVQLLESGGGLVQPGGSLRLSCAASGFTFSYYAMSWVRQAPGKGLEWVSAISHRGGSTLYADSVKGRFTISRDNSKNTLYLQMNSLRAEDTAVYYCARGRSSLDGWGQGTMVTVSS
VL: EIVLTQSPGILSLSPGERASLSCRASTSVSSAYLAWYQQKPGQAPRLLIYASSHRPLGIPDRFSGSGSGTDFTLTISRLEPEDFAVYYCQQYGDSLSFGGGTKVEIKR
notes: Antibody optimised against mouse IL-34; The printed constant regions look murine, and a mIgG1 control is used in vivo; also called Exemplified Antibody 3
In the case of B2, the “IC50; inhibition of IL-34 induced ERK phosphorylation in NIH-3T3/CSF1R cells” value in experiment [6] came out at 15.7 nM. This molecule displayed a Kd in experiment [7] of 0.016 nM.

B3: Antibody 2 (antibody, human IgG4 S228P, kappa, F234A L235A, V domains shown)
VH: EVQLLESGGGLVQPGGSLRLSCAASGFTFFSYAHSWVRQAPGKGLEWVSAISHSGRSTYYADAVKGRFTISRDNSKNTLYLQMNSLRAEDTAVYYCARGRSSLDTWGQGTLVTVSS
VL: EIVLTQSPGTLSLSPGERATLSCRASQSISSAYLAWYQQKPGQAPRLLIYASSIRPTGIPDRFSGSGSGTDFTLTISPLEPEDFAVYYCSQYGDSLSFGGGTKVEIKR
notes: Shares its light chain with Antibody 1; Modified IgG4 heavy chain; also called Exemplified Antibody 2
Regarding B3, the Kd in experiment [4] came out at 0.152 nM; in experiment [5], 0.054 nM.

The molecule B4 came in with a Kd in experiment [8] of 0.056 nM.

The record behind these values is patent publication US20210363232A1 (Eli Lilly, published 2021).
